The values below come from patent US20160222395.

In data set [1] the test system is ALS2_T1 TALE nuclease right subunit (synthetic construct). Briefly: cell_activity. The conditions noted are these: yeast beta-galactosidase recombination assay, 37 C, as pair with left subunit; 0.86 (0.02) at 30 C; also cleaves in N. benthamiana leaves (T7EI).
Data set [2] deals with ALS2_T1 TALE nuclease left subunit (synthetic construct). The data set can be described thus: cell_activity. As to conditions: yeast beta-galactosidase recombination assay, 37 C, as pair with right subunit; 0.86 (0.02) at 30 C; also cleaves in N. benthamiana leaves (T7EI).

As to “ACAGTACGACCCAGTCT (double strand) [ALS2_T1 right target half-site]”, in data set [1], the activity (relative to I-SceI (max 1.0)) came to 0.97. In the case of “TAGCTTGTTCCACATTT (double strand) [ALS2_T1 left target half-site]”, the activity (relative to I-SceI (max 1.0)) in data set [2] was determined as 0.97.
